Target: T1, Mouse talin-1 R7R8 (mouse, UniProt P26039 1359-1659)
T1 construct: talin-1, mouse, rod domains R7 and R8 (R7R8 double domain module); 15N-labelled for the NMR experiments; also called talin R7R8; R7R8 module; source: expressed and purified as described previously [9]
Assay: fluorescence polarisation; BODIPY-TMR coupled peptide at 0.5 µM in PBS pH 7.4, 5 mM TCEP, 0.05% Triton X-100; one-site total and nonspecific binding model
Conditions: both partners purified

T1 sequence (P26039 1359-1659): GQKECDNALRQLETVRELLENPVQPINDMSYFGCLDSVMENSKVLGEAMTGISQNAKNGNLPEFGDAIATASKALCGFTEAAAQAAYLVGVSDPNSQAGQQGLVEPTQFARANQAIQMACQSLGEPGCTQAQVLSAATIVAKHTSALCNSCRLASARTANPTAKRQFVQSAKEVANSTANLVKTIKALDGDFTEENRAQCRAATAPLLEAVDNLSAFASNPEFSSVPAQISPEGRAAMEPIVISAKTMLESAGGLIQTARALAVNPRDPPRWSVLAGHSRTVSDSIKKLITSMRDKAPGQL

B1: KANK1 KN motif peptide (for FP), BODIPY-TMR coupled (peptide)
peptide: PYFVETPYGFQLDLDFVKYVDDIQKGNTIKKC
modifications: BODIPY-TMR coupled
notes: KANK1 KN motif, mouse residues 30-60; extra C-terminal cysteine printed beyond the stated limits 30-60; also called WT-KANK1; source: synthetic peptide, bought: GLBiochem (Shanghai)
B1 was tested, and the Kd was 1200 nM.

Reference: paper PMC10281804, “The structural basis of the talin–KANK1 interaction that coordinates the actin and microtubule cytoskeletons at focal adhesions” (Open Biology, 2023)
